These results are taken from article PMC4066776, “Molecular determinants of the DprA−RecA interaction for nucleation on ssDNA” (Nucleic Acids Research, 2014).

In general, stoichiometry N refers to the number of molecules, sites or subunits per partner or assembly.

The target of series [1] is T1, S. pneumoniae RecA lacking the first 28 residues (Δ28), purified (S. pneumoniae, UniProt P0A451 29-388).
T1 construct: RecA, Streptococcus pneumoniae, locus Sp1940, the 28 first residues removed; also called Δ28RecA; source: E. coli, purified (Ni-NTA column, gel filtration)
Kind of series: pull-down; pull-down on magnetic beads using purified proteins; which partner was on the beads is told only in the supplementary methods. The note with it: both partners purified.

Series [2] deals with the molecule itself. Put plainly: SAXS; scattering curve of 5KA DprA in solution superimposed on that of WT DprA (the latter taken from ref. 18).

B1: S. pneumoniae DprA K119A/K144A/K175A/K202A/K225A (5KA), purified (natural protein)
chain: MKITNYEIYKLKKSGLTNQQILKVLEYGENVDQELLLGDIADISGCRNPAVFMERYFQIDDAHLSKEFQKFPSFSILDDCYPWDLSEIYDAPVLLFYKGNLDLLKFPKVAVVGSRACSAQGAKSVEKVIQGLENELVIVSGLAAGIDTAAHMAALQNGGKTIAVIGTGLDVFYPAANKRLQDYIGNDHLVLSEYGPGEQPLAFHFPARNRIIAGLCRGVIVAEAAMRSGSLITCERAMEEGRDVFAIPGSILDGLSDGCHHLIQEGAKLVTSGQDVLAEFEF
notes: DprA, Streptococcus pneumoniae, locus Sp1266, five lysines K119/K144/K175/K202/K225 mutated to alanines; also called 5KADprA; 5KA mutant; source: E. coli, purified (Ni-NTA column, gel filtration)
As to B1, the binding result in series [1] was “binds”. Further, the “stoichiometry N” value in series [2] is 2.
